Measurements: paper PMC7125159, “Pyrazinamide triggers degradation of its target aspartate decarboxylase” (Nature Communications, 2020)

Target: the molecule itself
Experiment: dynamic light scattering; drug-free; 1 mg/mL PanD in 50 mM Tris pH 7.5, 200 mM NaCl, 298 K; octamer

B1: Wild-type Mtb Aspartate decarboxylase PanD (PanDWT), cleaved active form (enzyme)
chain 1: MLRTMLKSKIHRATVTCADLHYVG
chain 2: SVTIDADLMDAADLLEGEQVTIVDIDNGARLVTYAITGERGSGVIGINGAAAHLVHPGDLVILIAYATMDDARARTYQPRIVFVDAYNKPIDMGHDPAFVPENAGELLDPRLGVG
notes: not shown: His6, N-terminal, kept; copies: 8 + 8
  stoichiometry N: 8
